Measured values from PMC9482650, “Quantitative fragmentomics allow affinity mapping of interactomes” (Nature Communications, 2022).

B1: NCF1, P14598 (peptide)
chain: STKRKLASAV
B2: FZD2, Q14332 (peptide)
chain: TNSRHGETTV
B3: FAM110B, Q8TC76 (peptide)
chain: ARESQKVSHV

Target: T1, APBA2_2, Q99767
T1 sequence (Q99767 654-744, limits assumed, looked up): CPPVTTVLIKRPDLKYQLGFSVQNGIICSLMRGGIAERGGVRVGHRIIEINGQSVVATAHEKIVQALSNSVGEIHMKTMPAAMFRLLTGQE
Assay: holdup assay
Design: key: below the threshold = too weak to quantify, mostly under pKd 3.1 to 4
Details: plain residues with an end cap or a label only (N-terminal biotin on a linker: ado-ado)

Binder | pKd
B1 | below the threshold
B2 | below the threshold
B3 | below the threshold

Target: T2, ARHGAP21, Q5T5U3
T2 sequence (Q5T5U3 45-169, limits assumed, looked up): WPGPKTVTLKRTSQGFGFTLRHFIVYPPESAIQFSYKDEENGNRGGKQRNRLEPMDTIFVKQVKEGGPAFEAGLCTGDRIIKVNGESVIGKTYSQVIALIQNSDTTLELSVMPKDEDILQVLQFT
Assay: holdup assay
Design: key: below the threshold = too weak to quantify, mostly under pKd 3.1 to 4
Details: plain residues with an end cap or a label only (N-terminal biotin on a linker: ado-ado)

Binder | pKd
B1 | below the threshold
B2 | 4.04
B3 | 3.92

Target: DLG1_2, Q12959
Sequence (Q12959 314-412): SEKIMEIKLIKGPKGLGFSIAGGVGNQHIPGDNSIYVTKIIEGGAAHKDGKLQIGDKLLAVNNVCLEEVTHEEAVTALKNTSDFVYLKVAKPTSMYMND
Assay: holdup assay
Design: key: below the threshold = too weak to quantify, mostly under pKd 3.1 to 4
Details: plain residues with an end cap or a label only (N-terminal biotin on a linker: ado-ado)

Binder | pKd
B1 | 4.61
B2 | 5.17
B3 | 4.68

Target: DLG2_3, Q15700
Assay: holdup assay
Design: key: below the threshold = too weak to quantify, mostly under pKd 3.1 to 4
Details: plain residues with an end cap or a label only (N-terminal biotin on a linker: ado-ado)

Binder | pKd
B1 | 4.09
B2 | 4.38
B3 | 3.62

Target: DLG4_1, P78352
Sequence (P78352 62-152): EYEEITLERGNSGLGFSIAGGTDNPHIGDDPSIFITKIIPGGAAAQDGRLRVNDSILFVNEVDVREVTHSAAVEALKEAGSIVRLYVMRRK
Assay: holdup assay
Design: key: below the threshold = too weak to quantify, mostly under pKd 3.1 to 4
Details: plain residues with an end cap or a label only (N-terminal biotin on a linker: ado-ado)

Binder | pKd
B1 | below the threshold
B2 | 4.85
B3 | 4.06

Target: DLG4_2, P78352
Sequence (P78352 155-259): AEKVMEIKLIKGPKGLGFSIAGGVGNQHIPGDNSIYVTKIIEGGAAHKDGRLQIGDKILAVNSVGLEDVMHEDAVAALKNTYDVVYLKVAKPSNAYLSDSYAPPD
Assay: holdup assay
Design: key: below the threshold = too weak to quantify, mostly under pKd 3.1 to 4
Details: plain residues with an end cap or a label only (N-terminal biotin on a linker: ado-ado)

Binder | pKd
B1 | 4.51
B2 | 4.92
B3 | 4.53

Target: DLG4_3, P78352
Sequence (P78352 306-403): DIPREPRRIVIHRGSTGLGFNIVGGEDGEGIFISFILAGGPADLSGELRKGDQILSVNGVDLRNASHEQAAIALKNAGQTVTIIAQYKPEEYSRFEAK
Assay: holdup assay
Design: key: below the threshold = too weak to quantify, mostly under pKd 3.1 to 4
Details: plain residues with an end cap or a label only (N-terminal biotin on a linker: ado-ado)

Binder | pKd
B1 | 3.67
B2 | 4.24
B3 | below the threshold

Target: FRMPD4, Q14CM0
Sequence (Q14CM0 67-160): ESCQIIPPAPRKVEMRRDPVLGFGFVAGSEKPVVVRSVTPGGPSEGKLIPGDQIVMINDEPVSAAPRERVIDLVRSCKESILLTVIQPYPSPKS
Assay: holdup assay
Design: key: below the threshold = too weak to quantify, mostly under pKd 3.1 to 4
Details: plain residues with an end cap or a label only (N-terminal biotin on a linker: ado-ado)

Binder | pKd
B1 | below the threshold
B2 | below the threshold
B3 | below the threshold

Target: GIPC2, Q8TF65
Sequence (Q8TF65 112-203): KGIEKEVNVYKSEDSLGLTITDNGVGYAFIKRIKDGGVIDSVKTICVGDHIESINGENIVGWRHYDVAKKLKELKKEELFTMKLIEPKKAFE
Assay: holdup assay
Design: key: below the threshold = too weak to quantify, mostly under pKd 3.1 to 4
Details: plain residues with an end cap or a label only (N-terminal biotin on a linker: ado-ado)

Binder | pKd
B1 | below the threshold
B2 | 4.22
B3 | below the threshold

Target: GORASP2, Q9H8Y8
Assay: holdup assay
Design: key: below the threshold = too weak to quantify, mostly under pKd 3.1 to 4
Details: plain residues with an end cap or a label only (N-terminal biotin on a linker: ado-ado)

Binder | pKd
B1 | below the threshold
B2 | 4.19
B3 | 4.88

Target: GRASP, Q7Z6J2
Sequence (Q7Z6J2 96-193): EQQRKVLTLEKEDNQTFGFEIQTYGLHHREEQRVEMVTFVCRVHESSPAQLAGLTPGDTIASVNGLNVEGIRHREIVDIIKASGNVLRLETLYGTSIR
Assay: holdup assay
Design: key: below the threshold = too weak to quantify, mostly under pKd 3.1 to 4
Details: plain residues with an end cap or a label only (N-terminal biotin on a linker: ado-ado)

Binder | pKd
B1 | 3.65
B2 | 3.56
B3 | 3.8

Target: GRID2IP_2, A4D2P6
Sequence (A4D2P6 272-370): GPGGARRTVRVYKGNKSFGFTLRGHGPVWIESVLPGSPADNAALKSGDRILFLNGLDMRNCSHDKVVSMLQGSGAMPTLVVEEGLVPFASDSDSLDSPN
Assay: holdup assay
Design: key: below the threshold = too weak to quantify, mostly under pKd 3.1 to 4
Details: plain residues with an end cap or a label only (N-terminal biotin on a linker: ado-ado)

Binder | pKd
B1 | 4.28
B2 | 3.53
B3 | 4.66

Target: GRIP2_5, Q9C0E4
Sequence (Q9C0E4 544-642): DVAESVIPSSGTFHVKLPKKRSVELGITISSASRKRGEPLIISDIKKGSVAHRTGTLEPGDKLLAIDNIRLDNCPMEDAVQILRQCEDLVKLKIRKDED
Assay: holdup assay
Design: key: below the threshold = too weak to quantify, mostly under pKd 3.1 to 4
Details: plain residues with an end cap or a label only (N-terminal biotin on a linker: ado-ado)

Binder | pKd
B1 | below the threshold
B2 | below the threshold
B3 | below the threshold

Target: HTRA1, Q92743
Sequence (Q92743 360-477): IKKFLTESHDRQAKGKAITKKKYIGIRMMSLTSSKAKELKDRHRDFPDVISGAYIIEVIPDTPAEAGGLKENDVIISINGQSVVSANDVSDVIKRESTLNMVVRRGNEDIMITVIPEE
Assay: holdup assay
Design: key: below the threshold = too weak to quantify, mostly under pKd 3.1 to 4
Details: plain residues with an end cap or a label only (N-terminal biotin on a linker: ado-ado)

Binder | pKd
B1 | below the threshold
B2 | 4.41
B3 | 4.32

Target: HTRA2, O43464
Sequence (O43464 355-458): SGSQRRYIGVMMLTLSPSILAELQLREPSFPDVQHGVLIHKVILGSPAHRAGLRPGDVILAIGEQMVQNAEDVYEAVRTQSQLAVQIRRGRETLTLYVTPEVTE
Assay: holdup assay
Design: key: below the threshold = too weak to quantify, mostly under pKd 3.1 to 4
Details: plain residues with an end cap or a label only (N-terminal biotin on a linker: ado-ado)

Binder | pKd
B1 | below the threshold
B2 | below the threshold
B3 | below the threshold

Target: IL16_1, Q14005
Sequence (Q14005 210-306): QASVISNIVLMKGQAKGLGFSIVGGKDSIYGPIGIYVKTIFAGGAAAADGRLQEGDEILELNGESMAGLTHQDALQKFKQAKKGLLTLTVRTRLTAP
Assay: holdup assay
Design: key: below the threshold = too weak to quantify, mostly under pKd 3.1 to 4
Details: plain residues with an end cap or a label only (N-terminal biotin on a linker: ado-ado)

Binder | pKd
B1 | 3.52
B2 | 3.76
B3 | 4.17

Target: IL16_4, Q14005
Sequence (Q14005 1229-1329): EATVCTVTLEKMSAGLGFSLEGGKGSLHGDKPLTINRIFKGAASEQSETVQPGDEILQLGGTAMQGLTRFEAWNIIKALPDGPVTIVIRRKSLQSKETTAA
Assay: holdup assay
Design: key: below the threshold = too weak to quantify, mostly under pKd 3.1 to 4
Details: plain residues with an end cap or a label only (N-terminal biotin on a linker: ado-ado)

Binder | pKd
B1 | below the threshold
B2 | below the threshold
B3 | below the threshold

Target: Inadl_1, Q8NI35
Sequence (Q8NI35 113-229): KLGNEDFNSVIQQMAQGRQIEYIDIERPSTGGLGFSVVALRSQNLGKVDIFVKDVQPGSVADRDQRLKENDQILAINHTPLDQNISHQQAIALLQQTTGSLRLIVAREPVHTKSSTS
Assay: holdup assay
Design: key: below the threshold = too weak to quantify, mostly under pKd 3.1 to 4
Details: plain residues with an end cap or a label only (N-terminal biotin on a linker: ado-ado)

Binder | pKd
B1 | below the threshold
B2 | below the threshold
B3 | below the threshold

Target: Inadl_10, Q8NI35
Sequence (Q8NI35 1673-1763): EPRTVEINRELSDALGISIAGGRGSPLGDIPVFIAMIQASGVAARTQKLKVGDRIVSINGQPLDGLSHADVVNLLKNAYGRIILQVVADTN
Assay: holdup assay
Design: key: below the threshold = too weak to quantify, mostly under pKd 3.1 to 4
Details: plain residues with an end cap or a label only (N-terminal biotin on a linker: ado-ado)

Binder | pKd
B1 | below the threshold
B2 | below the threshold
B3 | below the threshold

Target: Inadl_6, Q8NI35
Sequence (Q8NI35 1058-1167): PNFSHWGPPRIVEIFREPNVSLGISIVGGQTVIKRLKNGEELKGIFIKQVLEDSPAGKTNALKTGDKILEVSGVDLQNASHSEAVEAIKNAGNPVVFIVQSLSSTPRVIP
Assay: holdup assay
Design: key: below the threshold = too weak to quantify, mostly under pKd 3.1 to 4
Details: plain residues with an end cap or a label only (N-terminal biotin on a linker: ado-ado)

Binder | pKd
B1 | below the threshold
B2 | below the threshold
B3 | 4.05

Target: LAP2, Q96RT1
Sequence (Q96RT1 other isoform, or with tags, fused parts or gaps): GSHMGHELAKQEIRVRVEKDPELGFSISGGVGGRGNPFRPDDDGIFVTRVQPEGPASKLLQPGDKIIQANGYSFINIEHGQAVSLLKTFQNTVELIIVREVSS
Assay: holdup assay
Design: key: below the threshold = too weak to quantify, mostly under pKd 3.1 to 4
Details: plain residues with an end cap or a label only (N-terminal biotin on a linker: ado-ado)

Binder | pKd
B1 | below the threshold
B2 | 4.02
B3 | 3.66

Target: LNX1_2, Q8TBB1
Sequence (Q8TBB1 371-470): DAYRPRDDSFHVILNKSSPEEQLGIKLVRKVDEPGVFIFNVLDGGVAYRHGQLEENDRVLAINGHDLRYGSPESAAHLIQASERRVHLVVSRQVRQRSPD
Assay: holdup assay
Design: key: below the threshold = too weak to quantify, mostly under pKd 3.1 to 4
Details: plain residues with an end cap or a label only (N-terminal biotin on a linker: ado-ado)

Binder | pKd
B1 | below the threshold
B2 | 3.78
B3 | below the threshold

Target: LNX1_3, Q8TBB1
Sequence (Q8TBB1 500-596): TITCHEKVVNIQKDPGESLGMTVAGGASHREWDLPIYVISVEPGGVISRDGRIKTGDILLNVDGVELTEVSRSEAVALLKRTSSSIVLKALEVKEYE
Assay: holdup assay
Design: key: below the threshold = too weak to quantify, mostly under pKd 3.1 to 4
Details: plain residues with an end cap or a label only (N-terminal biotin on a linker: ado-ado)

Binder | pKd
B1 | below the threshold
B2 | below the threshold
B3 | below the threshold

Target: MAGI2_4, Q86UL8
Sequence (Q86UL8 772-865): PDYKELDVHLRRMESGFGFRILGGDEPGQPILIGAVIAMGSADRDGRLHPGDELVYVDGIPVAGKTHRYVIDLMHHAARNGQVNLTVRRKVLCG
Assay: holdup assay
Design: key: below the threshold = too weak to quantify, mostly under pKd 3.1 to 4
Details: plain residues with an end cap or a label only (N-terminal biotin on a linker: ado-ado)

Binder | pKd
B1 | below the threshold
B2 | 4.1
B3 | below the threshold

Target: MAGI2_5, Q86UL8
Sequence (Q86UL8 915-1017): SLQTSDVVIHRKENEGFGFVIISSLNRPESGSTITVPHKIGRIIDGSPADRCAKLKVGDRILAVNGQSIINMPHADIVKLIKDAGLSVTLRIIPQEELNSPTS
Assay: holdup assay
Design: key: below the threshold = too weak to quantify, mostly under pKd 3.1 to 4
Details: plain residues with an end cap or a label only (N-terminal biotin on a linker: ado-ado)

Binder | pKd
B1 | 3.99
B2 | 3.6
B3 | 3.66

Target: MAGI3_2, Q5TCQ9
Sequence (Q5TCQ9 398-503): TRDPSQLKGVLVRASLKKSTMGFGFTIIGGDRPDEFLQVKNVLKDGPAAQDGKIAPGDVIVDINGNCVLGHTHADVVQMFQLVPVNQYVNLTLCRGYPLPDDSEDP
Assay: holdup assay
Design: key: below the threshold = too weak to quantify, mostly under pKd 3.1 to 4
Details: plain residues with an end cap or a label only (N-terminal biotin on a linker: ado-ado)

Binder | pKd
B1 | 5.35
B2 | 5.11
B3 | 5.28

Target: MAST1, Q9Y2H9
Sequence (Q9Y2H9 962-1065): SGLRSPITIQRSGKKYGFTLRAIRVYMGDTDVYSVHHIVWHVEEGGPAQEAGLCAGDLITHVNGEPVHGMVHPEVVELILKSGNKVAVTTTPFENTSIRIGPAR
Assay: holdup assay
Design: key: below the threshold = too weak to quantify, mostly under pKd 3.1 to 4
Details: plain residues with an end cap or a label only (N-terminal biotin on a linker: ado-ado)

Binder | pKd
B1 | below the threshold
B2 | below the threshold
B3 | 4.13

Target: MAST2, Q6P0Q8
Sequence (Q6P0Q8 1099-1202): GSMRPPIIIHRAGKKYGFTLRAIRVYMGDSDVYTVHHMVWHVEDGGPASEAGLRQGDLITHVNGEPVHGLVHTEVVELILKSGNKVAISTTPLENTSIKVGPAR
Assay: holdup assay
Design: key: below the threshold = too weak to quantify, mostly under pKd 3.1 to 4
Details: plain residues with an end cap or a label only (N-terminal biotin on a linker: ado-ado)

Binder | pKd
B1 | 4.54
B2 | 5.05
B3 | 4.76

Target: PDLIM1, O00151
Sequence (O00151 1-87): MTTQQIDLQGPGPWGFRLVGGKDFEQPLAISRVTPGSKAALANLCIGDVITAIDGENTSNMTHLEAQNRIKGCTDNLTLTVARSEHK
Assay: holdup assay
Design: key: below the threshold = too weak to quantify, mostly under pKd 3.1 to 4
Details: plain residues with an end cap or a label only (N-terminal biotin on a linker: ado-ado)

Binder | pKd
B1 | below the threshold
B2 | below the threshold
B3 | below the threshold

Target: T3, PDZD2_2, O15018
T3 sequence (O15018 329-429, limits assumed, looked up): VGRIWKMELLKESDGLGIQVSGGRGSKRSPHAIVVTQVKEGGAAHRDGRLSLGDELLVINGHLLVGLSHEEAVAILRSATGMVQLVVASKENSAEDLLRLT
Assay: holdup assay
Design: key: below the threshold = too weak to quantify, mostly under pKd 3.1 to 4
Details: plain residues with an end cap or a label only (N-terminal biotin on a linker: ado-ado)

Binder | pKd
B1 | 4.51
B2 | 4.18
B3 | 5.17

Target: T4, RADIL, Q96JH8
T4 sequence (Q96JH8 971-1071, limits assumed, looked up): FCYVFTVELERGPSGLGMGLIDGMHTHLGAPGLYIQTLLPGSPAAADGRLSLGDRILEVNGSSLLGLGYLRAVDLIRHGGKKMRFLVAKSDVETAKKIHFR
Assay: holdup assay
Design: key: below the threshold = too weak to quantify, mostly under pKd 3.1 to 4
Details: plain residues with an end cap or a label only (N-terminal biotin on a linker: ado-ado)

Binder | pKd
B1 | below the threshold
B2 | 4
B3 | 4.55

Target: T5, SHANK1, Q9Y566
T5 sequence (Q9Y566 658-767, limits assumed, looked up): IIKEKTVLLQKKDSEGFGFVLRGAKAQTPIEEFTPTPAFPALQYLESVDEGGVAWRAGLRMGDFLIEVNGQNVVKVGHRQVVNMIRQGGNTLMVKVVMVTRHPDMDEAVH
Assay: holdup assay
Design: key: below the threshold = too weak to quantify, mostly under pKd 3.1 to 4
Details: plain residues with an end cap or a label only (N-terminal biotin on a linker: ado-ado)

Binder | pKd
B1 | below the threshold
B2 | below the threshold
B3 | below the threshold

Target: T6, SNTB1, Q13884
T6 sequence (Q13884 107-205, limits assumed, looked up): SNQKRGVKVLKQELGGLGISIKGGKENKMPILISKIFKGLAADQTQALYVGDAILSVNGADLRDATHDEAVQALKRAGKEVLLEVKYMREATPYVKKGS
Assay: holdup assay
Design: key: below the threshold = too weak to quantify, mostly under pKd 3.1 to 4
Details: plain residues with an end cap or a label only (N-terminal biotin on a linker: ado-ado)

Binder | pKd
B1 | below the threshold
B2 | 4.75
B3 | 4.52
